# From the supplement of paper PMC12042874
# ± gives the uncertainty stated by the source.
# Assay: amyloid nucleation score (Sup35N fusion, yeast selection) (log enrichment); library NNK1; higher = more nucleation; inactive = no reads after selection
# Method in brief: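 Three technical output replicates were used for random libraries. Psi-negative yeast expressing peptides of 20 random codons fused to Sup35N were induced with 100 μM copper sulfate for 24 hours and grown 7 days at 30°C on medium lacking adenine and uracil, and input and output plasmid inserts were Illumina-sequenced, excluding sequences with under 100 input reads. The nucleation score is the DiMSum log enrichment of output over input reads, centred on the mode score of non-aggregating sequences.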
row,Substance,amyloid nucleation score
1,NWTVFLATNGF,-0.095 ± 0.85
2,EDMTLMLNNFSPILAIGWWT,1.25 ± 0.25
3,TKNVLLTYGHPMLDMFAVVY,inactive
4,RHIVFDRPSISFWLKSRKRR,0.501 ± 0.64
5,NKIGRGVVCSRLWTCCSCFM,8.554 ± 0.079
6,SSPTLLSWVKW,0.99 ± 0.58
7,FKCKSDAPWPWLHSL,1.37 ± 0.45
8,MVGVLVKVREKAVMGPGQFG,0.804 ± 0.29
9,YWLLT,-0.501 ± 0.55
10,AGDTMAVWLPHQKRGGCFEM,-0.815 ± 1.2
11,LRIERMWVWVSA,0.556 ± 0.65
12,WSRTNMIYNPSVGAIYRV,-0.021 ± 0.41
13,YWPGFSNRFR,0.397 ± 0.75
14,GMQIKYNLCSRKTLVENGIS,3.48 ± 0.12
15,LCALG,-0.434 ± 1.2
16,SHELVKHGYKY,-0.436 ± 0.47
17,VQPDDLARTGRLQLVLLVWN,-0.883 ± 0.92
18,WINKYYDLN,0.472 ± 0.42
19,RSHAIHVYKQLCHRVVFIWL,1.39 ± 0.46
20,LYCSNLILVWLFCRSDISVR,5.17 ± 0.056
21,MWLKSNNWRNKADDLQGKVD,0.523 ± 0.58
22,LVILRGLGPDSCYYC,-0.248 ± 0.86
23,IMPSCKLLAAHVADYVFLMR,0.863 ± 0.84
24,FGLRFAHAHLINWPWMLSGS,0.047 ± 0.76
25,HTVPILRSAVPDSDARAKSQ,0.493 ± 0.4
26,IWMYP,1.7 ± 0.65

row,Substance,amyloid nucleation score
1,GEERHAAYTNWFFLRCLLTY,-0.046 ± 0.65
2,SDGWCRLRCES,-0.429 ± 0.59
3,YGDDRWYIRSIIEDCQLGGF,-0.716 ± 0.5
4,CFRDGYSKLCGCYVSMRTGH,0.459 ± 0.53
5,HMLGKASGVLFNQRAVTGG,0.696 ± 0.79
6,DQSWSREWPCVLVHHVHYKD,0.626 ± 0.28
7,TIWVEKLWDIYI,inactive
8,LITLAFVVSCVSYSRGSKRW,1.31 ± 0.23
9,SLSAPLNTLVFVVYIQWWEM,0.321 ± 0.71
10,FNLISGKIGYRLLQTCIMMM,-0.963 ± 0.51
11,FVMRAFNLIRWVGSACNLET,inactive
12,EFFRVMPGNT,3.68 ± 0.13
13,LTCFVISVGTSSLIIDFWI,-0.647 ± 0.39
14,IGDDLLGVFLYIETNSTPVF,0.655 ± 0.74
15,QKRRKLARLASRYFPS,0.325 ± 0.57
16,YFVLALWFIGCYECLYLWLC,1.21 ± 0.59
17,RLPLHHTCYVIC,0.468 ± 1.2
18,CVRNGLGCYSCTRTFFTVIV,-0.409 ± 0.94
19,CIFLM,0.21 ± 0.48
20,VMSSMMWYSYHMFHPYNAFE,1.28 ± 0.79
21,WFVNWWEYVL,0.042 ± 0.9
22,FSRISCFP,0.638 ± 0.61
23,VCLVVEIG,1.04 ± 0.93
24,ETGSDEI,-0.55 ± 0.39
25,LISACDRSPSVIPI,0.252 ± 0.37
26,DDTDLVLVMRRSIVERGMRE,0.437 ± 0.39

row,Substance,amyloid nucleation score
1,HYIPRRN,-0.016 ± 1.7
2,RIFNKDSLGI,-0.554 ± 0.48
3,VRLCLVLLESDLLTGTVGIG,-1.02 ± 1.2
4,YCNGSLLRLAYMFGSGVSPR,0.935 ± 0.46
5,VGLGYYNSSK,0.91 ± 0.51
6,RLWNSRWFPGNLNCWVKLEW,0.044 ± 1.1
7,FYVMCSARSQHAFSNKYLGY,-0.165 ± 0.26
8,FRFVG,-1.53 ± 0.83
9,WFEVNSACQLSNLGGLTEFR,-0.417 ± 1.4
10,YMVFVVVSI,0.946 ± 0.24
11,FMDKVFSIP,-0.101 ± 0.78
12,GSYRLKCCTYLVGKY,1.73 ± 0.28
13,YWRKLQYRMAGN,0.265 ± 0.64
14,YTTVLAYLLTLDVGSSALSG,-0.465 ± 1.2
15,IKMYACMYWLVEFLVN,-0.046 ± 0.86
16,SDPYDPRIVVVRIKLLLVME,-0.153 ± 1.4
17,IGMLGLCGRIPMQAEGGSFR,0.712 ± 0.52
18,SGKLLISCVYSLENMC,1.39 ± 0.72
19,LVIYVVSDDSVGLTNWRIVA,3.76 ± 0.065
20,SSCYLCLVVYSFTS,5.3 ± 0.072
21,RYGVGLCAYMFFSCVDFRSG,1.65 ± 0.4
22,YFSSYFV,0.118 ± 0.41
23,RCVMFQVRHSNIGRKRDYGI,0.389 ± 1.2
24,GHLENPFDERASCWRITADG,1.25 ± 0.74
25,RLYFYGFRDSLWQFNLSEEH,7.619 ± 0.052
26,QNVRSLVHSYLKGTNSSLVG,-0.01 ± 0.74

row,Substance,amyloid nucleation score
1,ITDCPCRGISVCVV,-0.288 ± 0.26
2,GWNHWADTSGTLGK,0.502 ± 0.73
3,LGCLQLITSERGPDYYKVAT,0.218 ± 0.41
4,YLLCFWILCFTAVGIFTGFN,0.456 ± 0.25
5,GYGAKWVLVVS,1.25 ± 0.47
6,YSAVWRSMYTQNLWVPTGMG,1.83 ± 0.27
7,ELSDTVFRRVCNLIVMVTPV,1.05 ± 0.4
8,LWKNVVWTTGPIIASWVSDL,2.04 ± 0.11
9,SHGNLYGHHERLNSTRNPES,-1.14 ± 0.9
10,TQSCF,0.074 ± 0.84
11,NSCRMPYSGV,inactive
12,TLCINWKPFP,0.308 ± 0.38
13,VSGLAGPEM,0.412 ± 0.56
14,LRRLSIANLFIFAFSWRFYW,1.03 ± 0.52
15,GGQSS,2.97 ± 0.16
16,SRFNSWLCCEND,1.76 ± 0.35
17,AFPQFLGCLVIFQSHGRRER,8.1 ± 0.064
18,NIVNYFSCLKALNKFLHKMG,0.609 ± 0.26
19,PSRWIAVPSMEVKVL,0.16 ± 1.1
20,HGSIQSV,inactive
21,TVVTYVRNNFKEVHSCVEVS,-0.607 ± 0.47
22,PIWLTDKFGG,-0.24 ± 0.61
23,DIFVLMRAMWHRGMI,0.857 ± 0.8
24,FMLSFDTTFPLKVLIRTSPE,-0.858 ± 0.85
25,LVLGAVV,-0.104 ± 0.87
26,GHTVVSSWALNFEYGFQLGY,0.05 ± 0.5

row,Substance,amyloid nucleation score
1,VILECNVAGVGELAQCQCAG,0.986 ± 0.59
2,NDDRFSLLCGRGRSGLSEWC,inactive
3,CNQYWVSQ,0.322 ± 0.26
4,HEPFDSDHTVARRETCLFGR,-0.928 ± 0.52
5,ILCSLYYICT,2.74 ± 0.071
6,DLNRSALSRDDGNSVILKCG,0.653 ± 0.68
7,CWGLLSGDCHALEKFNRFYL,-0.086 ± 0.48
8,KGYLLRWLGEVYFVNYGSNS,-0.585 ± 0.84
9,MRSFAFWNYVFGRGMFPVFW,-0.272 ± 0.41
10,SCPKVITNVLSSKTYPRMVG,1.11 ± 0.34
11,FMSICPSTNGRCACRWLRM,0.857 ± 0.98
12,RLFRTLGSDRGLFKEYF,0.734 ± 0.84
13,RLSLAESAPLVNFVSTALGK,-0.168 ± 0.93
14,AIDSVNMTTLRWM,0.292 ± 0.62
15,SEHVIIGRRDFV,-0.018 ± 1
16,PLVGGRNCGKDFPSLTDTPV,-0.06 ± 0.27
17,WRILYRC,0.41 ± 0.34
18,GLYSTGNFDVGRSLCDHMGS,-0.492 ± 1.1
19,AFSSLTC,-0.087 ± 1
20,FGHYFDTLKPYSRALWRVVS,-0.641 ± 0.61
21,TPSTQLALWAIYFHRRLFES,-0.54 ± 1.3
22,KKFFKYELFEVCIFLGYRCS,0.493 ± 1.2
23,FYFRHSVLMCKHLFQFDYKE,0.668 ± 0.45
24,TLRCDFLPRNKF,-0.595 ± 1.4
25,VVDVQALSWSRGADLSSW,1.02 ± 0.68
26,ARSFETLLTTSRGGKVDWLT,-0.272 ± 0.24

row,Substance,amyloid nucleation score
1,RVIILMFTHRTCNS,-1.07 ± 2.7
2,MPVFSFLWPMKDMPHKVLS,0.364 ± 0.36
3,RGLQNCASSTVRESGR,0.009 ± 1
4,SSNWFPR,-0.07 ± 0.59
5,RASTNLRSEIDVNNRGWLRW,1.32 ± 0.42
6,TTCGCKMHVSAHR,0.425 ± 1.1
7,YSILMVNWMFWCFVEAWNHD,0.623 ± 0.56
8,GIRMRGVSDLSLLRM,0.163 ± 0.77
9,SLVSGSVGCLGRYQFRESKP,0.422 ± 0.45
10,NSVWHGLYCSQQRSLRTTRL,0.116 ± 0.29
11,HRTDYENFPSSKSRRMLVRV,0.436 ± 1.2
12,CTFILVLHLLHINTDHIMSA,-0.176 ± 1.1
13,SNYYWVAWGDSPLQVHP,0.626 ± 0.81
14,NFVFGHNGGACSYVGLLM,1 ± 0.7
15,LSQNLAPGIVFFAV,-1.02 ± 1.7
16,IALASCVCLSACWTLDVNSM,0.989 ± 0.31
17,SFANVGSVGWAMYSGYTSRT,0.002 ± 0.84
18,KNDVASLLLGSMLKANSTCC,0.413 ± 1.4
19,MQNMNEVSIINVAERVVNGG,inactive
20,QDYGDDLRSGFRGYLSSPQG,0.264 ± 0.32
21,DFARNQDGSFVWN,-0.575 ± 0.36
22,WTSMGTHTFSVRNRSGPHNG,1.22 ± 0.62
23,SDALPVYVEFREGGKSRGWT,-0.916 ± 1.1
24,VTVTYIRCTR,1.25 ± 0.63
25,VSETAFLNTNKWGPKCLMWN,-1.42 ± 1
26,FLMYFQNRV,0.624 ± 0.33

row,Substance,amyloid nucleation score
1,FCLNHHMVLYSIRRWNVFVY,-2.16 ± 2.7
2,TRVGLVPSLGDRSDNYIVRI,0.087 ± 0.39
3,FQATR,-0.238 ± 0.32
4,QGKISGNRRSFFWW,-0.765 ± 0.44
5,IGTLFTSNSYFWYLVVG,2.51 ± 0.13
6,TYALITADI,0.193 ± 0.18
7,IENGLYMSLYLGNQRI,1.47 ± 0.29
8,LDFKDSGLYLPYKGNYGSV,0.378 ± 0.68
9,VKYLVIL,-0.618 ± 0.47
10,SCLNNKSPSLI,-0.342 ± 0.25
11,RTIGFTEELP,-0.577 ± 0.96
12,WIFIGTIPILLIGDRRSANV,6.35 ± 0.066
13,TIDIV,2.28 ± 0.13
14,WLIQE,1.24 ± 0.71
15,TLRSTWFRMCHTISA,0.441 ± 0.25
16,YVDIPVVVS,0.235 ± 0.32
17,EVDFNSSFTWSHMSSKCRMF,-0.046 ± 0.54
18,YTLILREIYWCC,-0.128 ± 0.54
19,HHMRCLGTLNNLCKCCFEER,3.41 ± 0.11
20,YKLKFIRGACHSS,0.9 ± 0.63
